# According to the nanobody polyreactivity screen of Harvey et al. (2022):
# Assay: yeast display, Sf9 membrane polyspecificity reagent, FACS + sequencing; frameworks hold sequencing errors
# In short: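 After 36–48 hours of galactose induction, yeast (Saccharomyces cerevisiae BJ5465) displaying a synthetic nanobody library were stained at 4 °C for 1 hour with 10% biotinylated, detergent-solubilized Sf9 membrane reagent. Streptavidin microbeads enriched the stained cells before FACS sorting into low and high (top ~1%) gates on anti-HA and streptavidin fluorescence. Each clone's polyreactivity label reflects its gate of origin.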
row,Sequence,polyreactivity (PSR sort gate)
1,QVQREESGGGLVQAGGSLRLSCAASGRTFRYYAMGWSRQAPGKERELVAAITSGGGTNYADSVKGRFTISRDNAKNTVYLQMNSLKPEDTAVYYCAADHVYYDYDYWGQGTQVNVSS,low polyreactivity
2,QVQRVASGGGLVQAGGSLRLSWAASGSIVVRYTMGWYRQAPGKERELVAGISSRGGSTYYADSVKGRFTISRDNAKNTVSLQLNSLTPEDTAVYYCAKERSYSRSGGTYYYWGQRTQVTVSS,high polyreactivity
3,QVQRVDSGGGLVQAGGSLRVSCAASGFIFVANAMGGDREAPGKERELVADINRGSTYYADSVKGRFTISRDNAKNTVYLQMNSLKPEDTAVYYCAARHWRRSGIYYYWGQGTQVTVSS,high polyreactivity
4,QVQRVESAGGLVQAGGSLRLSCAASGFILDNYAMGWYRQAPGKERELVAAISGSGGSTYYADSVKGRFTISRDNAKNTVYLQMNSLKPEDTAVYYCNRDRLLRQYDYWGQGTQVTVSS,high polyreactivity
5,QVQRVESAGGLVQAGGSLRLSSAASGFTFRRYAMGWYRQARGKERELVARITWSGTSTDYADSEKGRFTISRDNAKNTVYLQMNSLKPEDTAVYYCAKAYTPWSGRYFAGVGYYYWGQGTQVTVSS,high polyreactivity
6,QVQRVESAGGLVQARGSLRLSCAASGRIFYYNAMGWYRQAPGKEREFVAAITSVGSTNYADSVKGLFTISRDNAKNTVYLQMNSLKPEDTAVYYCARASAWYVTLVGKYTKYDYWGQGTQVTVSS,low polyreactivity
7,QVQRVESGGCLVQAGGSLRLSCAASGYTFGSNAMGWYIQAPGKERELVAAITYGAGRTSYADSVKGRFTISRDNAKNTVYLQMNSLKPEDTAVYYCAAVWGYVIWVDSAVYREYDYWGQGTQVTVSS,high polyreactivity
8,QVQRVESGGGLVQAGCRLRLSCAASGTFFMGWYRQAPWKSRELVAGISISDGSTYYADSVKGRLTISRDNAKNTVYLQMKSLKPEDTAVYYFAAVFNPTTGFDYWGQGTQVTVSS,low polyreactivity
9,QVQRVESGGGLVQAGGILRLSCAASGSTFREYTMGWYRQAPGKEKELVAAITNSGGSTYYADSVKGRFTISRDNEKNTVYLQMNSLKPEDTAVYYCAADVGIVDYDYWGQGTQVTVSS,low polyreactivity
10,QVQRVESGGGLVQAGGRLRLTCAASGSTFYVNAMVWYRQAPGKERELVAGISFSDGSTYYADSVKGRFTISRDNAKNTVYLQMNSLKPEDTAVYYCATVGAFDIYYGYGYWGQGTQVTVSS,low polyreactivity
11,QVQRVESGGGLVQAGGSLLLSCAASGRIFVTYAKGWYRQAPGKERDLVASITGGGSRYYADSVKGRVTISRDKAKTTVYVQMTRLKPEDPAVNYCAAKSRSWYFGYGYWGQGTQVTVSS,high polyreactivity
12,QVQRVESGGGLVQAGGSLLLSCAASGSILYSYPMGWYRQAPGKERELVAAITGDGASTNYADSVKGRFTISRDNAKNTDYLQMNSLKPEDTAVYYCNAGRESDDVYEGSKRIGQFDYWGQGTLVTVSS,low polyreactivity
13,QVQRVESGGGLVQAGGSLRFSCAASGSTFSYYAMGWYSQAPGKERELVAVISRGGSTNYADSVKGRFTISRDNAKNTVYLQMNSLKPEDTAVYYCAAYVLPWRGRGQTEYGYSGQGTQVTVSS,low polyreactivity
14,QVQRVESGGGLVQAGGSLRLSCAASGGIFDRYAMGWYRPAPGKERELVAVISGSVNTYADSVKGRFTISRDNAKNTVYLQMNSLKPEDTAVYYCATQFEGPSGFNYWGQGTQVTVSS,low polyreactivity
15,QVQRVESGGGLVQAGGSLRLSCAASGITFGEYAMGWYSPAPGNERELVAGINWSGDGTYYADSVKGRFTISRDNEKNTVYLQMNSLKPEDTAVYYCAVDPGGGNYIYYYNEYYYWGQGTQVTLSS,low polyreactivity
16,QVQRVESGGGLVQAGGSLRLSCAASGITFGPYAMGWYRQAPGKERELVAAITGSGGITYYADSVKGRFTISRDNAKNTVYLQMNSLKPEDTAVYYCAAEYPYVYGTYSDSYTEYDYWGQGTQLTVSS,low polyreactivity
17,QVQRVESGGGLVQAGGSLRLSCAASGITFSRYAMGWYRPAPGKERELVAAISRSGTRTYYADSVKGRFTISRDNAKNTVYLQMNSLKPEDSAVYYCAAESFASSFDYWGQGTQVTVSS,high polyreactivity
18,QVQRVESGGGLVQAGGSLRLSCAASGITIYHYAMGCYRQAPGKERELVAAISRSGGSTSYADSVKGRFTISRDNAKNTVYLQMNSLKPEDTAVYYFAARLVRESDPLGYWGQGTQVTVSS,high polyreactivity
19,QVQRVESGGGLVQAGGSLRLSCAASGRIFIANAMGWYRQAPGKERELVAAISFSGGSTYYADSVKGRFTISRDHAKTTVYLQMNSLNPEDTAVYYCNALYTSYYRPSGMGYWGQGTQVTVSS,high polyreactivity
20,QVQRVESGGGLVQAGGSLRLSCAASGRIFPTNAMGWYRQAPGKERELVAAIPVSGGSTYYADSVKGRFTISRDNAKNTVYLQMNSLKPEDTAVYYCAADSSTYRFDYWGQGTQVTVSS,low polyreactivity
21,QVQRVESGGGLVQAGGSLRLSCAASGRNSQFYDMGWYRQAPGKERELVATISGGASTNYADSVKGRFTISRDNAKNTVYLQMNSLKPEDTAVYYCARAGRSWDTLYKYYLEHDYWGQGTQVTVSS,low polyreactivity
22,QVQRVESGGGLVQAGGSLRLSCAASGRTFFGYAMGWYRQAPGKERELVAAITSGGSTNYADSVKGRFTISRDNAKNTVYLQMNSLKPEDTAVYYCAASEDGSVSYESTYPEYDYWGQGTQVTVSS,low polyreactivity

row,Sequence,polyreactivity (PSR sort gate)
1,QVQRVESGGGLVQAGGSLRLSCAASGRTFNHYAMGWYRAAPGKERELVAAISRSGGTTYYADSVKGRFTISRENAKNTVYLQMNSLKPEDTAVYYCAARWWYRYNYDFWGQGTQVTVSS,high polyreactivity
2,QVQRVESGGGLVQAGGSLRLSCAASGRTFYPNAMGWSRQAPGKERELVADITYSGASTYYADSVKGRFTISRDNAKNTVYLQMNSMKPEDTAVYYCAKVYGQMVSGGYVTRYDFWGQGTQVTVSS,low polyreactivity
3,QVQRVESGGGLVQAGGSLRLSCAASGRTLARNAMGWYRQAPGKERELVASINGRTTRTYYADSVKGRFTISRDNAKNTVYLQMNSLKPEDTAVYYCAVKDRYSFRYDYWGQGTQVTVSS,high polyreactivity
4,QVQRVESGGGLVQAGGSLRLSCAASGSIFEPYAMGCYRQAPGKESELVATAITYSGGSTYYADSVKGRFTISRDNAKNTVYLQMNSLKPEDTAVYYCAADDLGDGVYKLDYWGLGTQVTVSS,low polyreactivity
5,QVQRVESGGGLVQAGGSLRLSCAASGSIFGYYAMGWSRQAPVKERELVAAITRSCGSTYYADSVKGRFTISRDNAKTTVYLQMNSLKPEDTAVYYCNAVRYAVRLPAFPGYDYLGQGTQVTVSS,high polyreactivity
6,QVQRVESGGGLVQAGGSLRLSCAASGSTFGIYDMGWYRQSPGKEMELVARITYSGGSRYYADSVKGRFTISRDNAKNTVYLQMNSLKPEDTAVYYCAARSWPHYFRYDYWGQGTQVTVSS,high polyreactivity
7,QVQRVESGGGLVQAGGSLRLSCAASGSTFTWNVMGWYRQAPGKERELVASITSGDSTYADSVKGRFTISRDNAKNTVYLQMNSLKPEDTAVYYCNVGYDQEKYGYWGQGTQVTVSS,low polyreactivity
8,QVQRVESGGGLVQAGGSLRLSCAASGSTFYRYAMVWYRQAPGKERELVATISGGGRTNYADSVKGRFTISRDNAKNTVYLQMNSLKPEDTAVYYCAVDSSSPYDYWGQGTQVTVSS,high polyreactivity
9,QVQRVESGGGLVQAGGSLRLSCAASGSTLRKYVMGWYRQAPGKERELVAAISSSGGRTYYADSVKGRFTISRDNAKYTVYLQMNSLKPEDTAVYYCAATRYIPGFYYWGQGTQVTVSS,high polyreactivity
10,QVQRVESGGGLVQAGGSLRLSCAASGYTFLRYAKGSYRQAPGKERELVAAISRRGGRTYYADSVKGRFTISRDNAKNTVYLQMNSLKPEDTAVYYCAAVNSTQTIGLMDYWGQGTQVTVSS,high polyreactivity
11,QVQRVESGGGLVQAGGSLRLSCAATGLIFSPYAMGWYRQAPGKEREFVAGITWRGGNTYYADSVKGRFTISRDNAKNTVYLQMNSLNPEDTAVYYCAAYERKFYTVSRWYKLDYWGQGTQVTVSS,high polyreactivity
12,QVQRVESGGGLVQAGGSLRLSCADSGTYGSYAMGWYRQAPGTEREFVAAISASGGSTYYADSVKGRFTISRDNAKNTVYLQMNSLKPEDTAVYYCNKSPRRNRQYDYWGQGSQVTVSS,high polyreactivity
13,QVQRVESGGGLVQAGGSLRLSCSASGFIFQLSAMGWYRQAPGTERELVAAITWRGGSTYYADSVKGRFTISRDNAKNTVYLQMYSLKPEDTAVYYCAASASWRGQRVPYGYWGQGTQVTVSS,high polyreactivity
14,QVQRVESGGGLVQAGGSLRLSFAASGSTDGRYARGWYSQAPVQDTELVAAITRNGGRTYYADSVKGCFTISRDNAKNTVYLQMNSLKPEHTADEYCAASGRSQYGDYDDWGQGSQVTVSS,high polyreactivity
15,QVQRVESGGGLVQAGGSVRLSCPASGSIFWSYAMGWYRQAPGKERELVAVINWSGGSTYYADSVKGRFTISRDNAKNTVYLQMNSLNPEDTAVYYCNKDLGPTKRPFTFDYSGQGTQVTVSS,low polyreactivity
16,QVQRVESGGRLVQAGGSLRLSCAASGRTFWAYAMGWYRQAPGKERELVAAITTSGGSTNYADSVKGRFTISRDNAKNTVYLQMNSLKPEDTAVDYCNADPTYHVVNGVGYWGQGTQVTVSS,low polyreactivity
17,QVQRVESRGGLVQAGGSLRLTCAASGRTFWRYVMGWYRQAPGKERELVATISSGGSTNYAYSVKGRFTISRDNAKNTVYLQMNSLKPEDTAVYYSAAYIYDGVWVYPYYPYDYWGQGTQVTVSS,low polyreactivity
18,QVQSEESGGGLVQAGGSLRLSCAASGLIFDGYSMGWNRQAPGKERELVAAITRSGASTSYADSVKGRFTISRDNAKNTVYLQMNSLKPDDTAVYYCAAKVHTFYYHYYSWGQGTQVTVSS,high polyreactivity
19,QVQVVESGGGLVKAGGSLRLSCAASGGTFLINAMGWYRQAPGKERELVATITSGGTTYYADSVKGRFTISRDNAKNTVYLQMNSLKPEDTAVYYCATRGKGRYGYDSWGQGTQVTVSS,low polyreactivity
20,QVQVVESGGGLVKAGGSLRLSCAASGIIFVYYAMGWSRQAPGKERELVAAITSDGGRTYYADSVKGRFTISRDNAKNTVYLQMNSLKPEDTAVYYWAARTLYRGIKGYNYWGQGTQVTVSS,high polyreactivity
21,QVQVVESGGGLVQAGGSLGLSCAASGRTFGSNAMGWYRQAPGKERELVAAISSTVSTNYADSVKGRFTISSDNANNTVYLQMNSLKPEDTAVYFCNVTRHYSYVSEYDYWGQGTQVTVSS,low polyreactivity
